Measured values published in patent US20200369765A1 (INNATE PHARMA, published 2020).

Key:
Siglec-9 Fc protein = target: T1, Siglec-9 Fc protein (human); assay: SPR (Biacore T200), Fab over immobilized Siglec-9 Fc, 1:1 model
T1 construct: Produced in CHO cells; also called human Siglec-9 Fc
Procedure: SPR measurements were performed on a Biacore™ T200 apparatus (Biacore™ GE Healthcare) at 25° C. In all Biacore™ experiments HBS-EP+(Biacore™ GE Healthcare) and NaOH 10 mM served as running buffer and regeneration buffer respectively. Sensorgrams were analyzed with Biacore™ T200 Evaluation software. Human siglec-9 and -7 multimeric proteins were cloned, produced and purified at Innate Pharma.
Proteins were immobilized covalently to carboxyl groups in the dextran layer on a Sensor Chip CM5. The chip surface was activated with EDC/NHS (N-ethyl-N′-(3-dimethylaminopropyl) carbodiamide hydrochloride and N-hydroxysuccinimide (Biacore™ GE Healthcare). Proteins were diluted to 10 μg/ml in coupling buffer (10 mM acetate, pH 4.2 & 5.0) and injected until the appropriate immobilization level was reached (i.e., 600 to 2000RU). Deactivation of the remaining activated groups was performed using 100 mM ethanolamine pH 8 (Biacore™, GE Healthcare).
The affinity study was carried out according to a standard Kinetic protocol recommended by the manufacturer (Biacore™ GE Healthcare kinetic wizard). […] The entire sensorgram sets were fitted using the 1:1 kinetic binding model. Monovalent affinities and kinetic association and dissociation rate constants are shown below in Table 2 below.

[1] = target: T2, Human Siglec-9 mutant M14 (human, UniProt Q9Y336 18-463); assay: flow cytometry, HEK293T transfectants
T2 construct: Expressed on HEK293T cells; also called Mutant 14

[2] = target: T3, Human Siglec-9 mutant M15 (human, UniProt Q9Y336 18-463); assay: flow cytometry, HEK293T transfectants
T3 construct: Expressed on HEK293T cells; also called Mutant 15

Human Siglec-9 mutant M8 [3] = target: T4, Human Siglec-9 mutant M8 (human, UniProt Q9Y336 18-463); assay: flow cytometry, HEK293T transfectants
T4 construct: Expressed on HEK293T cells; also called Mutant 8

[4] = target: T5, Human Siglec-9 mutant M11 (human, UniProt Q9Y336 18-463); assay: flow cytometry, HEK293T transfectants
T5 construct: Expressed on HEK293T cells; also called Mutant 11

Human Siglec-9 mutant M6 = target: T6, Human Siglec-9 mutant M6 (human, UniProt Q9Y336 18-463); assay: flow cytometry, HEK293T transfectants; '-' indicates full loss of binding
T6 construct: Expressed on HEK293T cells; also called Mutant 6

Human Siglec-9 mutant M7 = target: T7, Human Siglec-9 mutant M7 (human, UniProt Q9Y336 18-463); assay: flow cytometry, HEK293T transfectants
T7 construct: Expressed on HEK293T cells; also called Mutant 7

Human Siglec-9 mutant M8 [5] = target: T4, Human Siglec-9 mutant M8; assay: flow cytometry, HEK293T transfectants; '-' indicates full loss of binding
[6] = target: T8, Human Siglec-9 mutant M16 (human, UniProt Q9Y336 18-463); assay: as above
T8 construct: Expressed on HEK293T cells; also called Mutant 16
T8 sequence (Q9Y336 other isoform, or with tags, fused parts or gaps mutant): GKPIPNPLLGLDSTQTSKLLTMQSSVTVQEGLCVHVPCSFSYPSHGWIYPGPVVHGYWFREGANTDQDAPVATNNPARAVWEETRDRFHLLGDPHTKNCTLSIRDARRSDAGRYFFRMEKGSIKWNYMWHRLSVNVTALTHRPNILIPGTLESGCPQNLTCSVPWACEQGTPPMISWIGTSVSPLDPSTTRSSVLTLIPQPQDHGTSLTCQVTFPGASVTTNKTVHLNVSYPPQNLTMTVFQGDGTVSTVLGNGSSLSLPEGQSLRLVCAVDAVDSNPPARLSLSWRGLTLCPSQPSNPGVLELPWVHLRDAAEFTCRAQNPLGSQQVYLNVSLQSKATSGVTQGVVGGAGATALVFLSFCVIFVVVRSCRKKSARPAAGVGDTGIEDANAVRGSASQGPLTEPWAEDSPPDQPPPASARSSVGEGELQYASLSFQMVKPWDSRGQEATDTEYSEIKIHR

T4 sequence (Q9Y336 other isoform, or with tags, fused parts or gaps mutant): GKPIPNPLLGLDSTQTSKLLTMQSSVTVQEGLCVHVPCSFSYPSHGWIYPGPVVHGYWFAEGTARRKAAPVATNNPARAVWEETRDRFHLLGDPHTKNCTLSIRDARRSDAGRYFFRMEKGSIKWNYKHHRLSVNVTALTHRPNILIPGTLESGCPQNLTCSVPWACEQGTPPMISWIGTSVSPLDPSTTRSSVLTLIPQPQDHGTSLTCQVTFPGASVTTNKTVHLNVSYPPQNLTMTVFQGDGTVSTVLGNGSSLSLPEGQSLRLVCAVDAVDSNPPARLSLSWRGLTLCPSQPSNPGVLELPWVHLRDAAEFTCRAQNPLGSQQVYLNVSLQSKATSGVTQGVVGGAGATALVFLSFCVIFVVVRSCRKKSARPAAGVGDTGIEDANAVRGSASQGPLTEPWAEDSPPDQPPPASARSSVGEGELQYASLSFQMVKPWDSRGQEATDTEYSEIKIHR
T1 sequence (chain, as listed by the source limits assumed): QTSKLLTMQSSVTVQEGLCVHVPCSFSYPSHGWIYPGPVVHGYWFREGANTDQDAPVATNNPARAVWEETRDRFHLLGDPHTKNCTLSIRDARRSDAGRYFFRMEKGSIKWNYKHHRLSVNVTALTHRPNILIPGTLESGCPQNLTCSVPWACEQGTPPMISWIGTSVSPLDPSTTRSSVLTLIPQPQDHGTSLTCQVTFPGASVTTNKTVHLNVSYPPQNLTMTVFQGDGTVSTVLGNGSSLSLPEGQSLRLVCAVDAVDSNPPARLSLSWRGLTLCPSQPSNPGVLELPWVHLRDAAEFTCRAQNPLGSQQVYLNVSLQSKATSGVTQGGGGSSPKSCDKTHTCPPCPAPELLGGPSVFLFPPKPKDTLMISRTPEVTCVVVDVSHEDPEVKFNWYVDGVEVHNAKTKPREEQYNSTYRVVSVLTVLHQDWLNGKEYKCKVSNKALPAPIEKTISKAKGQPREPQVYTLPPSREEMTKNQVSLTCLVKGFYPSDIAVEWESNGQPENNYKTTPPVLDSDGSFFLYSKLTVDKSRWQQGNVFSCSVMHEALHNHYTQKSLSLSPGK
T7 sequence (Q9Y336 other isoform, or with tags, fused parts or gaps mutant): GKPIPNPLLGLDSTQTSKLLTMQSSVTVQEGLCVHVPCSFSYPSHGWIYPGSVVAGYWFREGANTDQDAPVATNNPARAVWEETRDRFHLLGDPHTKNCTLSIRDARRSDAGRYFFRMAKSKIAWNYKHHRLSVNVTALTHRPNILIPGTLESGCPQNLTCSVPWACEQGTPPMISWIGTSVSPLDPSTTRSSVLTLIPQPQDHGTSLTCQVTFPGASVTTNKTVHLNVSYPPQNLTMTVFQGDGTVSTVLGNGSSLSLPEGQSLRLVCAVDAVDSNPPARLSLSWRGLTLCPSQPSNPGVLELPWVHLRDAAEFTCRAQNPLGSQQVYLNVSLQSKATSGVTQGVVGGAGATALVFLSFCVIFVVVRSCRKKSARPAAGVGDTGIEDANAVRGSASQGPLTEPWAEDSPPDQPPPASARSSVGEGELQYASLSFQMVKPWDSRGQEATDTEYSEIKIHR
T3 sequence (Q9Y336 other isoform, or with tags, fused parts or gaps mutant): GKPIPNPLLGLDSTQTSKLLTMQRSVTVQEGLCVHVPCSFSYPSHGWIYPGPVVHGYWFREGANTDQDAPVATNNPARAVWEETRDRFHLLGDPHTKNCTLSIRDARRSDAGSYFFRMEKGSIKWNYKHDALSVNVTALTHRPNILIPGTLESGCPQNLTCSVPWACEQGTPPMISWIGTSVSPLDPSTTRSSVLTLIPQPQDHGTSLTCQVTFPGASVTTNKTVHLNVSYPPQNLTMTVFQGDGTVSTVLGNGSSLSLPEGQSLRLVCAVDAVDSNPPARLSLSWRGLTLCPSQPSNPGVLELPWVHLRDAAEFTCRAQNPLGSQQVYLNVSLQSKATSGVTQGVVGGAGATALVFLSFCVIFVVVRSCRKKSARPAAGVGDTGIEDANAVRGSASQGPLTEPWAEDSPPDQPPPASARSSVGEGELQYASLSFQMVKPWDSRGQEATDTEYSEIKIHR
T2 sequence (Q9Y336 other isoform, or with tags, fused parts or gaps mutant): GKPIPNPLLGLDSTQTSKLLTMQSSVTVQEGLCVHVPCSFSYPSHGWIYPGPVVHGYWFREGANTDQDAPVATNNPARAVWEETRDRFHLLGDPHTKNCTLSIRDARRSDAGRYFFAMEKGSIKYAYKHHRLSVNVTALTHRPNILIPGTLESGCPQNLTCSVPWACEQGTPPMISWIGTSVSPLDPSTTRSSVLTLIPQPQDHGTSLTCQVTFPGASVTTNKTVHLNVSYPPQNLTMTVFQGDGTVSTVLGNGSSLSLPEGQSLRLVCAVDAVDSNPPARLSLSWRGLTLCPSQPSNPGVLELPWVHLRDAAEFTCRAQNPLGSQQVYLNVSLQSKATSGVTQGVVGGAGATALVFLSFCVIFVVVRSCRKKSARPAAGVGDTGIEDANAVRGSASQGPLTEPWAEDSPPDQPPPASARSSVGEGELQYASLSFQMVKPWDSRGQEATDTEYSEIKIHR
T5 sequence (Q9Y336 other isoform, or with tags, fused parts or gaps mutant): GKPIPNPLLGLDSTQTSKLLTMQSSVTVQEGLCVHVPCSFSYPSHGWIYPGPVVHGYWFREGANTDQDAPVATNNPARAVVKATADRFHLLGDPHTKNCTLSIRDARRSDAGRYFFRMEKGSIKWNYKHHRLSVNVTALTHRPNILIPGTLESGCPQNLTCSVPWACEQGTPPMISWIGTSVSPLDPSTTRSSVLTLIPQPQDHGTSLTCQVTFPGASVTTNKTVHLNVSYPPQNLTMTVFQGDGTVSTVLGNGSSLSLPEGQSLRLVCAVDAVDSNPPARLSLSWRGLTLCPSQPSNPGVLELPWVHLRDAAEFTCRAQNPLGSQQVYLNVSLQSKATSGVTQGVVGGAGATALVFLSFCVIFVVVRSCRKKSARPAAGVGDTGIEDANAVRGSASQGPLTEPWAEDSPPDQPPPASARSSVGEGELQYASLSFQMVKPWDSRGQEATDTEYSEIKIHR
T6 sequence (Q9Y336 other isoform, or with tags, fused parts or gaps mutant): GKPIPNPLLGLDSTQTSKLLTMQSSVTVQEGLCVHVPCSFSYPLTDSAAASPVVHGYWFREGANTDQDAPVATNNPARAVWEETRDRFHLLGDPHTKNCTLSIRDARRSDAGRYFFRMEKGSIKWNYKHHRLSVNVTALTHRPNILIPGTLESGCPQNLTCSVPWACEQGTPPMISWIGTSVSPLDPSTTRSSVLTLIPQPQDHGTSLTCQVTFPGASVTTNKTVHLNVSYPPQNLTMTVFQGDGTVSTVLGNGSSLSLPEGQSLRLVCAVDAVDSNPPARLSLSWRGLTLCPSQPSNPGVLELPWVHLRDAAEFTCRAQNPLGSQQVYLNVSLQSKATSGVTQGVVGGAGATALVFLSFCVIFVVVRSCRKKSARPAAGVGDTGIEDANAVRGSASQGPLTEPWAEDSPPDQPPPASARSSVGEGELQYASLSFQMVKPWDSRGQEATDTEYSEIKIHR

Row | Kd (Siglec-9 Fc protein) [nM] | koff (Siglec-9 Fc protein) [s⁻¹] | binding result [1] | binding result [2] | binding result (Human Siglec-9 mutant M8 [3]) | binding result [4] | binding result (Human Siglec-9 mutant M6) | binding result (Human Siglec-9 mutant M7) | binding result (Human Siglec-9 mutant M8 [5]) | binding result [6] | Binder
1 | 4.12 | 0.00011 | binds | binds | binds | binds | no binding | – | – | – | Fab.D (Fab of mAbD) (Fab, V domains shown) VH: QIQLVQSGPELKKPGETVKISCKASGYTFTDYSMHWVKQAPGKGLKWMGWIITETGEPTYADDFRGRFAFSLETSANTAYLQINNLKNEDTATYFCARDFDGYWGQGTTLTVSS VL: DILMTQSPASLSASVGETVTITCRASENIYSYLAWYQQKRGKSPQFLVYNAKTLTEGVPSRFRGSGSGTQFSLKINSLQPEDFGTYYCQHHYGFPWTFGGGTKLEIK
2 | 0.55 | 0.00043 | binds | binds | – | binds | – | binds | no binding | – | Fab.C (Fab of mAbC) (Fab, V domains shown) VH: QIQLVQSGPELKKPGETVKISCKASGYTFTNYEMNWVKEAPGKGLKWMGWINTYTGESTYADDFKGRFAFSLETSASTVYLQINNLKDEDVATYFCVRDDYGRSYGFAYWGQGTLVTVSA VL: NIVLTQSPASLTVSLGQRANISCRASESVDSYGNSFMHWYQQKPGQPPKLLIYLASKLESGVPARFSGSGSRTDFTLTIDPVETDDAATYYCHQNNEDPPWTFGGGTKLEIK
3 | 0.04 | 2.5e-05 | – | binds | binds | – | – | binds | – | no binding | Fab.A (Fab of mAbA) (Fab, V domains shown) VH: QVQLQQPGAELVKPGSPVKLSCKASYFTFTSYWMHWVRQRPGQGLEWIGEINPSNGHTNYNEKFESKATLTVDRSSSTAYMQLSSLTSEDSAVFYCANGVESYDFDDALDYWGQGTSVTVSS VL: DIQMTQTTSSLSASLGDRVTISCRASQDINNYLNWYQQKPDGTIKLLIYYTSRLHSGVPSRFSGSGSGTDYSLTINNLEQEDIATYFCQQGNTLPFTFGGGTKLEIK
4 | 0.37 | 0.00031 | – | binds | binds | – | – | binds | – | no binding | Fab.B (Fab of mAbB) (Fab, V domains shown) VH: QVQLQQPGAELVKPGASVKLSCKASVYTFTSYWMHWVKQRPGQGLEWIGEINPSNGHTNYNEKFKTKAKLTVDKSSSTAYMQLSSLTSEDSAVYFCANGVETYDFDDAMDYWGQGTSVTVSS VL: DIQMTQTTSSLSASLGDRVTISCRASQDINNYLNWYQQKPDGTVKLLIYFTSRLHSGVPSRFSGSGSGTDYSLTISNLEQEDIATYFCQQGDTFPFTFGGGTKLEIK
